Results: doi:10.1101/2022.11.11.516238

What was measured:
[1] = target: T1, NhaR (Vibrio parahaemolyticus) (UniProt Q87S97); assay: EMSA
T1 sequence: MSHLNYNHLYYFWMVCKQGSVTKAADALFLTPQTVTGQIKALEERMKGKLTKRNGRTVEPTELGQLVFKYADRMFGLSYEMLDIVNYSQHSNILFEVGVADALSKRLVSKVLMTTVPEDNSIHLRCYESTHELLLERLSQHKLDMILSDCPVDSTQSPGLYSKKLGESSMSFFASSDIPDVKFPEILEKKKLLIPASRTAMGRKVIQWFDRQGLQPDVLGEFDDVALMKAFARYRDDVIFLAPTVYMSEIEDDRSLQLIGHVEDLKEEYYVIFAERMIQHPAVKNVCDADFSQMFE

[2] = target: T2, LeuO (Vibrio parahaemolyticus) (UniProt Q87SS2); assay: EMSA
T2 sequence: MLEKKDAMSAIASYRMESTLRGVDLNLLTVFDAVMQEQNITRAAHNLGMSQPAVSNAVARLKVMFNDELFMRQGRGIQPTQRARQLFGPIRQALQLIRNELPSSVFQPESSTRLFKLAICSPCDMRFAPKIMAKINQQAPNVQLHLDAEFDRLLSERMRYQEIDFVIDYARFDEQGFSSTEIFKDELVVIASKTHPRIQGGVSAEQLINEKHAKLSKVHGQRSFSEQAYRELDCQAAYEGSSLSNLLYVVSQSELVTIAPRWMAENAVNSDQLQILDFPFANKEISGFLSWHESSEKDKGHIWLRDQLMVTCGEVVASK

Sequence	binding [1]	binding [2]
CCAAGGTGCTGATGTGATCATTTTGAAATACATATCCTTTGACGTCTAATTAAATTTCGTATTTATTATGGACATTCTTTACGGTTGAAAATCAAATAATCTGCGTTTTAATCTGGATTAATGTG (double strand) [PectA probe 1A]	binds	binds
CCACGACGACAAAACTAACCTTAAAACGGCATGCGAAAGTGTGCCGTTTTTTTATGTAAAAAACCTTAAGTCCCCTCTTTGAAACCCCACTGCATTCTGACTCAT (double strand) [PectA probe 1C]	binds	binds
